Reference: patent publication US20250042956A1 (University of California, published 2025)

T1: PIAL2 (yeast two hybrid GAL4 fusion) (Arabidopsis thaliana, UniProt F4JYG0 1-760)
T1 construct: cDNA cloned into Gateway Y2H vectors; not shown: GAL4-AD or GAL4-BD (pGADT7-GW / pGBKT7-GW)
T1 sequence: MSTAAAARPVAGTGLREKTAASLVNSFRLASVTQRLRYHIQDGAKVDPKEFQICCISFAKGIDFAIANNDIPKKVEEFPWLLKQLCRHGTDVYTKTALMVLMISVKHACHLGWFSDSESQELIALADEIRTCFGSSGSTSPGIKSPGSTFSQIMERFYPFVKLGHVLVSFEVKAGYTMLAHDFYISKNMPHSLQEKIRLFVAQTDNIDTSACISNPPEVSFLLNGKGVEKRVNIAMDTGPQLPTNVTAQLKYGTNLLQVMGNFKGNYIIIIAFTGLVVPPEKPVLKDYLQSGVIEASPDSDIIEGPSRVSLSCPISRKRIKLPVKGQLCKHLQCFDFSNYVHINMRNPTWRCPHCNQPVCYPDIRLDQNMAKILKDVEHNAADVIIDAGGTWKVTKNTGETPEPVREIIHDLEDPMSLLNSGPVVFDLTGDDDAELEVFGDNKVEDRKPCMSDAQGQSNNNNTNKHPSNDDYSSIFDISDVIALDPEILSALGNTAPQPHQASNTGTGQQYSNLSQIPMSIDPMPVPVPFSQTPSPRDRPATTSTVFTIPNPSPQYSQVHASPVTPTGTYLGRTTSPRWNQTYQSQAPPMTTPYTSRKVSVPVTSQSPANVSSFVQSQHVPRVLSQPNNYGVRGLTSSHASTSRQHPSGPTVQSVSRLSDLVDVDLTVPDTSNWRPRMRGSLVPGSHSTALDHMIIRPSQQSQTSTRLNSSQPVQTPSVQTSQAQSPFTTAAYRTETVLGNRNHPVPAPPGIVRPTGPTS

T2: AT2G17540.2 TRBIP2 (Arabidopsis thaliana)
T2 construct: Endogenous protein found by mass spectrometry
T2 chain: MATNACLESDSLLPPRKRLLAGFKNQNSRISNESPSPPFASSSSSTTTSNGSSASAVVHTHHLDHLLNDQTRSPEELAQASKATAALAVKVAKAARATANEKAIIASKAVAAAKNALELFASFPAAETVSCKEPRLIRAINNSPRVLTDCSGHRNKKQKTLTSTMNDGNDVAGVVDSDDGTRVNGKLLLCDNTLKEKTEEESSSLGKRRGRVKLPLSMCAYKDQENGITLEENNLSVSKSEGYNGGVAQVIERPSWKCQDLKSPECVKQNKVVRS

T3: AT4G35510.1 TRBIP1 (Arabidopsis thaliana)
T3 construct: Endogenous protein found by mass spectrometry
T3 chain: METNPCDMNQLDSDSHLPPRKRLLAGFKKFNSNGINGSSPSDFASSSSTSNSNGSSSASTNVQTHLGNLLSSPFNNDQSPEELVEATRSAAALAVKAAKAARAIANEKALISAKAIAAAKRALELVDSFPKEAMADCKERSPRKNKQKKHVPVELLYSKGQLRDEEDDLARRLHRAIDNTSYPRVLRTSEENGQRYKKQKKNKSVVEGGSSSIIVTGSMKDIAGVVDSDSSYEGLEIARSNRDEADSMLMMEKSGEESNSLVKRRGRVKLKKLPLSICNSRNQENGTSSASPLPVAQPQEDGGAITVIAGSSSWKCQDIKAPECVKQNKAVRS


How the values were obtained:
[1] = target: T1, PIAL2 (yeast two hybrid GAL4 fusion); assay: yeast two hybrid
From the text: The cDNA sequences of PIAL1, PIAL2, MOM2, MORC6, and MOM1 CMM2 domain (aa1660-aa1860, (see e.g., Han, Plant Cell Rep., 2016)) were first cloned into gateway entry vectors followed by LR reaction with pGBKT7-GW (Addgene 61703) and pGADT7-GW (Addgene 61702) destination vectors. Pairs of plasmid DNA for the desired protein interaction to be tested were co-transformed into the yeast strain AH109. Combinations of the empty pGBKT7-GW or pGADT7-GW vectors and the plasmids of desired proteins were used for transformation of yeast cells to test for self-activation. Transformed yeast cells were plated on synthetic dropout medium without Trp and Leu (SD-TL) and incubated for 2-3 days to allow for the growth of positive colonies carrying both plasmids. Three yeast colonies of each tested protein interaction pairs were picked and mixed in 150 μl 1×TE solution, and 3 μl of the 1×TE solution with the yeast cells were blotted on synthetic dropout medium without Trp, Leu, and His (SD-TLH) and with 5 mM 3-amino-1,2,4-triazole (3AT) to inhibit background growth. Growth of yeast on SD-TLH with 5 mM 3AT medium after 2-3 days of incubation indicates the interaction between the GAL4-AD fusion protein and the GAL4-BD fusion protein.

AT2G17540.2 TRBIP2 [2] = target: T2, AT2G17540.2 TRBIP2; assay: X-link IP-MS
AT4G35510.1 TRBIP1 [3] = target: T3, AT4G35510.1 TRBIP1; assay: X-link IP-MS
AT2G17540.2 TRBIP2 [4] = target: T2, AT2G17540.2 TRBIP2; assay: IP-MS rep 2
Method: (§1) The method of IP-MS used in this Example has been described in a recent paper (see e.g., Xue, Nat. Comm., 2021). Ten grams of unopened floral buds from Col-0 wild type and FLAG-tag transgenic plants, including PHD1, MOM1, AIPP3, MOM2, MORC6, PIAL2, TRB1, TRB2, TRB3, JMJ14, HD2A, HD2B, and ELF7 were collected and ground into fine powder with liquid nitrogen. These samples were resuspended with 25 mL IP buffer and homogenized until lump-free by dounce homogenizer. The lysate was filtered through Miracloth and incubated with 250 μL anti-FLAG M2 magnetic beads (Sigma) at 4° C. for 2 hours. The magnetic beads were washed with IP buffer and eluted with TBS containing 250 μg/mL 3×FLAG peptides. The eluted proteins were precipitated with trichloroacetic acid (Sigma) and subject to MS analyses as described previously (see e.g., Xue, Nat. Comm., 2021).

AT4G35510.1 TRBIP1 [5] = target: T3, AT4G35510.1 TRBIP1; assay: IP-MS rep 2
Method: as §1

AT2G17540.2 TRBIP2 [6] = target: T2, AT2G17540.2 TRBIP2; assay: IP-MS rep 1
Method: as §1

AT4G35510.1 TRBIP1 [7] = target: T3, AT4G35510.1 TRBIP1; assay: IP-MS rep 1
Method: as §1

| binding result [1] | IP-MS count (AT2G17540.2 TRBIP2 [2]) | IP-MS count (AT4G35510.1 TRBIP1 [3]) | IP-MS count (AT2G17540.2 TRBIP2 [4]) | IP-MS count (AT4G35510.1 TRBIP1 [5]) | IP-MS count (AT2G17540.2 TRBIP2 [6]) | IP-MS count (AT4G35510.1 TRBIP1 [7]) | Binder |
| --- | --- | --- | --- | --- | --- | --- | --- |
| binds | – | – | – | – | – | – | MORC6 (yeast two hybrid GAL4 fusion) (other, Arabidopsis thaliana, UniProt Q56Y74 1-663, looked up, cDNA cloned into Gateway Y2H vectors; not shown: GAL4-AD or GAL4-BD (pGADT7-GW / pGBKT7-GW)) MSHDRSVNVSHDAVIAKPERGTMLQSFSPRSHGSKGYSLPQDSEENRGSVGQSAGQSSTSVVDQVRSPADDAGVTSSSTICPAPVCRQFWKAGSYNDELSSKSQQPNGKNYLHVHPMFLHSNATSHKWAFGAVAELLDNAVDEIQNGATFVIVDKTTNPRDGATALLIQDDGGGMDPQAMRHCMGFGFSDKKSDSAIGRYGNGFKTSTMRLGADVIVFSRHSKNQTLTQSIGLLSYTYLTRTGHDRIVVPILDYEFNASAGEFKTLQDREHFISSLSILLEWSPFSTEAELLQQFDDVGPHGTKVIIYNMWLNSDAKLELDFDSVAEDILIEGSIKKTGSKIVNDHIASRFSYSLRVYLSILYLRIPETFKIILRGKVVEHHNVADDLMHPQYILYKPQAAGSEEALVVTTIGFLKEAPKVNLHGFCVYHKNRLIMPFWQVINYSSSRGRGVVGVLEANFVEPTHNKQDFEKTVLLQKLENRLKEMTVEYWSCHCVLIGYQVNKKPRLQIPQKVQPAGRQALSPPPGFQAVFPQGNTTSLPRVSTQPVLLEKRKEHPDSVASAALKRKVGNDDFTVPGHIRVEQFIHGSASQSQDIETVKLMEENKKLRAKCLDRKVRSQNLEVKAMNLRSELENYKSEYERLMVELQALDLVKDEHRRNVNT |
| binds | – | – | – | – | – | – | MOM1 CMM2 domain (yeast two hybrid GAL4 fusion) (other, Arabidopsis thaliana, UniProt Q9M658 1660-1860, looked up, range 1660-1860; also called MOM1 CMM2 domain (aa1660-aa1860); not shown: GAL4-AD or GAL4-BD (pGADT7-GW / pGBKT7-GW)) TSVAEPHISGSDACEMEISEPGPQVERSTFANLFHEGGVEHSAGVTALVPSLLNNGTEQIAVQPVPQIPFPVFNDPFLHELEKLRRESENSKKTFEEKKSILKAELERKMAEVQAEFRRKFHEVEAEHNTRTTKIEKDKNLVIMNKLLANAFLSKCTDKKVSPSGAPRGKIQQLAQRAAQVSALRNYIAPQQLQASSFPAP |
| – | 3 | 17 | 20 | 38 | 16 | 24 | FLAG-TRB3 (other, not shown: small tags and cut ends, FLAG-tagged TRB3 from its native promoter; tag position under the label FLAG-TRB3 not certain; also called TRB3-FLAG; TRB-FLAG) MGAPKLKWTPEEETALKAGVLKHGTGKWRTILSDPVYSTILKSRSNVDLKDKWRNISVTALWGSRKKAKLALKRTPLSGSRQDDNATAITIVSLANGDVGGQQIDAPSPPAGSCEPPRPSTSVDKIILEAITSLKRPFGPDGKSILMYIEENFKMQPDMKRLVTSRLKYLTNVGTLVKKKHKYRISQNYMAEGEGQRSPQLLLEGNKENTPKPEENGVKNLTKSQVGGEVMIMGMTEKEAAAAAARAVAEAEFAMAEAEEAAREADKAEAEAEAAHIFAKAAMKAVKYRMHSQTR |
